The supplement of paper PMC10567573

B1: GALNT9 (parent)
chain: FTQSGPIVSRATGRCLEVEMSKDA
B2: RPAIN (parent)
chain: ISEYEKSLQFDEKCLSIMLAEWEA

Variants of: B1
Experiment: protein stability index of a GFP-peptide fusion (GPS, HEK-293T) (PSI 1-6); higher = more stable
Conditions: c terminus: a fixed tail appended
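Also: lentivirally expressed fusions sorted by FACS into six bins by GFP to DsRed ratio, PSI derived from sequencing read proportions per bin multiplied by bin number.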

Protein stability index of substitutions, site by site:
M20: S 3.05 | T 3.24 | V 2.18 | W 1.55 | Y 2.46
S21: C 1.47 | D 1.63 | E 2.71 | F 1.86 | G 1.21 | H 1.76 | I 1.07 | K 1.82 | L 1.74 | N 1.79 | P 2.55 | Q 1.34 | R 3.38 | T 2.15 | V 2.05
K22: A 3.13 | C 2.56 | D 3.38 | G 2.7 | H 1.76 | I 1.71 | L 1.95 | N 2.74 | P 3.13 | Q 2.26 | R 1.32 | S 2.12 | Y 2.62
D23: C 1.51 | E 2.44 | G 1.79 | H 2.3 | I 1.57 | K 1.84 | L 2.07 | N 2.42 | P 1.92 | Q 1.95 | S 2.67 | T 1.84 | V 2.02 | Y 2.52
A24: C 2.34 | D 2.51 | E 2.64 | F 1.34 | H 2.43 | I 1.89 | L 2.35 | M 1.51 | N 2.78 | P 3.19 | R 2.2 | T 2.3 | V 1.68 | Y 1.75

Variants of: B2
Experiment: as above
Conditions: c terminus: a fixed tail appended

Protein stability index of substitutions, site by site:
I1: A 2.29 | D 2.6 | E 2.04 | F 1.34 | G 1.86 | H 2.15 | K 2.56 | L 1.64 | M 2.42 | N 1.69 | P 2.04 | Q 2.64 | R 2.41 | S 1.8 | T 3.12 | V 2.15 | W 1.26 | Y 1.48
S2: A 2.2 | C 1.41 | D 1.97 | E 1.16 | F 1.7 | G 1.72 | H 1.5 | I 1.79 | L 2.1 | M 2.15 | N 2.18 | P 2.04 | Q 1.81 | T 1.91 | W 2.59 | Y 2.54
E3: A 2.31 | C 1.44 | D 1.81 | G 1.41 | H 1.99 | I 1.74 | K 2.4 | L 1.54 | M 1.82 | N 3.69 | P 1.42 | Q 2.05 | R 2.4 | S 1.68 | T 2.91 | V 2.93 | W 3.76 | Y 3.23
Y4: A 2.48 | C 1.75 | D 2.12 | E 2.13 | F 1.86 | G 1.83 | H 2.06 | I 2.15 | K 2.1 | L 2.33 | M 2.15 | N 2.15 | P 1.41 | Q 1.8 | S 1.77 | T 2.5 | W 1.92
E5: C 2.24 | D 1.55 | I 1.75 | K 2.81 | L 2.02 | M 2.08 | N 1.51 | P 2.33 | Q 1.92 | R 1.32 | S 1.82 | T 1.58 | V 2.51 | W 1.23 | Y 2.3
K6: A 2.2 | C 2.67 | D 2.07 | E 1.78 | G 1.15 | H 1.97 | L 1.2 | M 1.73 | N 1.91 | Q 2.06 | R 2.39 | S 1.34 | T 1.92 | V 1.16 | W 1.79
S7: C 2.46 | D 1.93 | E 1.48 | F 2.08 | G 1.67 | H 2.7 | I 1.6 | K 1.38 | L 1.44 | M 1.56 | N 1.8 | P 1.47 | Q 2.13 | R 1.69 | W 2 | Y 1.76
L8: A 2.63 | C 1.96 | D 3.69 | E 3.45 | F 1.9 | G 3.44 | H 2.65 | I 2.79 | K 2.47 | M 2.29 | N 2.71 | P 2.97 | Q 3.1 | R 2.38 | S 2.68 | T 3.08 | V 2.22 | W 2.9 | Y 2.27
Q9: A 1.76 | C 1.64 | D 2.02 | E 1.78 | F 2.88 | H 1.85 | I 1.96 | K 2.23 | L 1.46 | M 2.03 | N 2.32 | P 1.95 | R 2.08 | S 1.7 | T 1.86 | V 1.25 | Y 1.58
F10: A 3.21 | C 2.99 | D 3.15 | E 3.47 | G 2.81 | H 3.33 | I 2.93 | K 3.53 | L 2.07 | M 2.45 | N 2.9 | P 3.43 | Q 3.51 | R 2.96 | S 3.08 | T 3.01 | V 2.45 | W 2.88 | Y 1.97
D11: A 2.17 | G 2.15 | H 1.68 | K 1.95 | L 3.63 | N 2.45 | P 1.99 | R 1.77 | S 2.29 | T 1.87
E12: A 2.34 | C 1.9 | D 2.17 | F 1.99 | G 2.27 | H 2.02 | I 1.67 | K 1.75 | M 1.66 | N 2.47 | P 1.76 | Q 1.98 | R 2.33 | S 1.92 | T 1.67 | V 1.26 | W 1.85 | Y 1.33
K13: A 2.1 | D 1.76 | E 1.71 | F 1.91 | G 1.8 | H 1.73 | M 1.34 | N 1.19 | P 2.72 | Q 1.47 | R 2.05 | S 2.25 | T 1.44 | V 1.7 | Y 3.37
C14: A 1.9 | D 2.16 | F 2.38 | G 2.27 | H 2.81 | I 2.16 | K 1.59 | L 1.44 | M 1.58 | N 1.96 | P 3.42 | Q 2.24 | R 2.32 | S 1.89 | T 1.71 | V 1.75 | W 1.35 | Y 1.16
L15: A 3.74 | C 2.66 | D 4.09 | E 4.41 | F 2.21 | G 3.62 | H 3.17 | I 3.52 | K 4.06 | M 2.2 | N 3.92 | P 4.02 | Q 3.73 | R 4.1 | S 3.92 | T 3.73 | V 2.09 | W 2.86 | Y 3.38
S16: A 2.32 | C 1.91 | D 2.08 | E 1.96 | F 2.09 | G 2.34 | H 2.56 | I 2.84 | K 2.17 | L 2.1 | M 1.49 | N 1.37 | P 2.85 | Q 2.11 | R 2.62 | T 2.1 | V 1.88 | W 1.86 | Y 2.83
I17: A 1.6 | C 1.63 | D 2.47 | E 2.16
